US20120141527A1
* marks the point of attachment. FITC = O=C1OC2(c3ccc(O)cc3Oc3cc(O)ccc32)c2ccc(NC(=S)*)cc21; βAla = NCCC(=O)O

Target: doubly-mutant HR1 peptides
Assay: native PAGE complex assembly assay, densitometry of fluorescence scans

B1: FITC-SAH-gp41(626-662)(A, F) (peptide)
peptide: {FITC-βAla}-LTWAEWDAEINNYTSLIHSLIEESQNQAEKNAQELLE-NH2
modifications: staple (positions not given here); also: two hydrocarbon staples from S5 residues, positions not given here
B1 gave a fold enhancement in binding activity compared to FITC-T649v of less than 2 fold.
